According to patent US20190151346A1, “COMBINATIONS THERAPIES FOR THE TREATMENT OF CANCER” (INSERM (INSTITUTE NATIONAL DE LA SANTÉ ET DE LA RECHERCHE …, priority 2016, published 2019):

B1: IL-17B: cytokine, product of the human IL-17B gene; ligand of IL-17RB (protein, UniProt Q9UHF5 21-180, looked up)
Interleukin-17B: QPRSPKSKRKGQGRPGPLAPGPHQVPLDLVSRMKPYARMEEYERNIEEMVAQLRNSSELAQRKCEVNLQLWMSNKRSLSPWGYSINHDPSRIPVDLPEARCLCLGCVNPFTMQEDRSMVSVPVFSQVPVRRRLCPPPPRTGPCRQRAVMETIAVGCTCIF
B2: IL-17E: pro-inflammatory cytokine, product of the human IL-17E gene, also named IL-25 (protein, UniProt Q9H293 33-177, looked up)
Interleukin-25: YSHWPSCCPSKGQDTSEELLRWSTVPVPPLEPARPNRHPESCRASEDGPLNSRAISPWRYELDRDLNRLPQDLYHARCLCPHCVSLQTGSHMDPRGNSELLYHNQTVFYRRPCHGEKGTHKGYCLERRLYRVSLACVCVRPRVMG

How the values were obtained:
Format in all cases: cell-based
[1] = system: EGFR; assay: Immunofluorescence microscopy: localization of EGFR; conditions: MDA-MB468; 10 ng/ml, 2 hours; FIG. 4A, FIG. 7
Protocol: (§1) BT20 and MDA-MB468 triple negative (HER2-, ER-, PR-) were obtained from American Type Culture Collection (ATCC N°HTB19, and ATCC N°HTB132, respectively). The LumB, and Her2-, ER-, PR-negative IJG-1731 cell line was previously established at the laboratory as described (Mombelli et al. Sci Rep. 2015 Jul. 8; 5:11874.) BT20 and IJG-1731 cells were grown in complete RPMI-1640 media with L-glutamine, supplemented with 10% fetal calf serum (FCS) and penicillin—streptomycin solution (100 μg/ml each) (Life technology, Saint-Aubain, France). MDA-MB468 cells were grown in a complete DMEM-F12 media with glutamine, 10% FCS and penicillin—streptomycin. All cells were maintained in a humidified 5% CO2 atmosphere at 37° C. All experiments were conducted with cells at confluency and starved for an overnight.
Cells (4.10^3) were grown on Lab-Tek chambers slide in their respective complete culture medium for 24 hours then starved for an overnight. Cells were then stimulated with IL-17E (long/ml), EGF (10 ng/ml) or a combination of both for 2 hours at 37° C., washed, and fixed with 4% paraformaldehyde (PFA)-PBS solution at 4° C. […] Slides were mounted with mounting medium containing Dapi then visualized with a Leica DMRB fluorescence microscope and images analysis was performed with the Archimed Software (Microvision).

[2] = system: Src; assay: Tyrosine phosphorylation by Western blotting: Src phosphorylation in TNBC cell lines
Protocol: as §1
(§2) Cells (3×10^5) were seeded in 6-well plates in complete medium for 24 hours then starved for another overnight. Cells were then stimulated with IL-17E (10 ng/ml), EGF (10 ng/ml), or a combination of both for 30 min in serum-free medium. Cells were then lysed in 1% Triton X100 buffer and left on ice for 1 hours. Protein samples were then subjected to 8% SDS-PAGE. Western blotting using specific antibodies assessed then the phosphorylation of the various kinases.

[3] = system: EGFR; assay: Tyrosine phosphorylation by Western blotting: EGFR phosphorylation in TNBC cell lines; conditions: IJG-1731, BT-20 and MDA-MB468; 10 ng/ml; FIG. 1
Protocol: BT20 and MDA-MB468 triple negative (HER2-, ER-, PR-) were obtained from American Type Culture Collection (ATCC N°HTB19, and ATCC N°HTB132, respectively). […] MDA-MB468 cells were grown in a complete DMEM-F12 media with glutamine, 10% FCS and penicillin—streptomycin. All cells were maintained in a humidified 5% CO2 atmosphere at 37° C. All experiments were conducted with cells at confluency and starved for an overnight.
as §2

[4] = system: STAT3; assay: Tyrosine phosphorylation by Western blotting: STAT3 phosphorylation in TNBC cell lines; conditions: 10 ng/ml
Protocol: as §1, §2

[5] = system: PYK-2; assay: Tyrosine phosphorylation by Western blotting: PYK-2 phosphorylation in TNBC cell lines; conditions: three cell lines; 10 ng/ml; FIG. 1
Protocol: as §1, §2

[6] = system: EGFR; assay: Cellular fractionation and Western blotting: EGFR and pY1086EGFR translocation to the nucleus; conditions: MDA-MB468 cytoplasmic and nuclear fractions; FIG. 4A
Protocol: as §1
(§3) Cells (3×10^5) were seeded in 6-well plates in complete medium for 24 hours then starved for another overnight. Cells were stimulated for 2 hours at 37° C. with IL-17E (10 ng/ml), EGF (long/ml), or a combination of both as indicated. Cells were then washed with PBS and lysed in a lysis buffer (HEPES 10 mM, MgCl2 15 mM KCl 10 mM, DTT 0.5 mM, PMSF 0.2 mM, 1 mM Na3VO4, 10 mM NaF, 0.5% Nonidet P-40). […] Protein concentrations were determined by using Bradford method. […]

[7] = system: STAT3; assay: Cellular fractionation and Western blotting: STAT3 and pSTAT3 translocation to the nucleus; conditions: MDA-MB468 fractions
Protocol: as §1, §3

Molecule | translocation of EGFR (immunofluorescence) [1] | phosphorylation of Src at Y416 at suboptimal concentrations ([2]; MDA-MB468, IL-17E 1 ng/ml alone or EGF 0.1-1 ng/ml alone, FIG. 3) | phosphorylation of Src at Y416 ([2]; three cell lines, 10 ng/ml, FIG. 1) | intensity of induced EGFR phosphorylation [3] | phosphorylation of STAT3-α and -β at Y705 ([4]; IJG-1731 and BT20 cell lines, FIGS. 1A and B) | phosphorylation of STAT3-α and -β ([4]; MDA-MB468 cell line) | phosphorylation of PYK2 at Y402 [5] | translocation of non-phosphorylated EGFR form to the nucleus [6] | translocation of phosphorylated EGFR (pY1086EGFR) to the nucleus [6] | phosphorylation of STAT3α and β [7]
B1 | induced a translocation from the membrane to cytoplasm with a strong perinuclear reorganization |  |  |  |  |  |  |  |  | 
B2 | induced the translocation of EGFR to the nucleus but to a lower extends compared to EGF | failed to induce any significant phosphorylation | induced the phosphorylation | comparable to that induced by EGF | induced considerable phosphorylation | less evident | induced the phosphorylation | fairly translocate | failed to induce its significant translocation to the nucleus | induced the phosphorylation
